What was measured:
Test in all cases: Kinase Profiling Assay
Format in all cases: biochemical
Settings in all cases: 100 μM
[1] = biological target: T1, Mer(h) (Homo sapiens, UniProt Q12866)
T1 sequence (Q12866 21-999): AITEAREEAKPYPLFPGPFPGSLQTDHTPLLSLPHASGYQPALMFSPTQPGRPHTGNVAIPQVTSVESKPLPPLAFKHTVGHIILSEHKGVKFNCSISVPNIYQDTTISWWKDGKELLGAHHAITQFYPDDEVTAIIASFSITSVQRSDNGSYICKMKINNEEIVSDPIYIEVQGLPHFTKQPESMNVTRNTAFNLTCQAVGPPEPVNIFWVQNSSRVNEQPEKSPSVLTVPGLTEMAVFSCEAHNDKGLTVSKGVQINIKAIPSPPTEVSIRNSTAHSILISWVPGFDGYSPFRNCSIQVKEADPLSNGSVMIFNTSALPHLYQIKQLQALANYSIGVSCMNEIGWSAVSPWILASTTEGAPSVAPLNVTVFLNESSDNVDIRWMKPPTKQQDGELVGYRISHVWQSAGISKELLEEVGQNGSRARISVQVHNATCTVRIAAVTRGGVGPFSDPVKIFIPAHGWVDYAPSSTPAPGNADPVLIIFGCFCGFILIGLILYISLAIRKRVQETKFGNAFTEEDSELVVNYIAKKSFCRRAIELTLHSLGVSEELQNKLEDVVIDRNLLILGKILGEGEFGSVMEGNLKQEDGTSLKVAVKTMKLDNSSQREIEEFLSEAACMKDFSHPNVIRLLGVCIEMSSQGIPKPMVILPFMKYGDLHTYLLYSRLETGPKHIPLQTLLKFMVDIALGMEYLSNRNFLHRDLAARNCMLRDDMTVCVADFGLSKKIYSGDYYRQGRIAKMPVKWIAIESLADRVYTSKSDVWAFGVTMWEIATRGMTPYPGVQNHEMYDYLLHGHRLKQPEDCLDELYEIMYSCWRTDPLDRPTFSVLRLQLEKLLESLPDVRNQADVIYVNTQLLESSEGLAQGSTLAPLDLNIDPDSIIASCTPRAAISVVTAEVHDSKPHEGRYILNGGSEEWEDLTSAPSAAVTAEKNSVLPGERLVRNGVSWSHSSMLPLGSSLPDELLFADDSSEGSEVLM

[2] = biological target: T2, TBK1(h) (Homo sapiens, UniProt Q9UHD2)
T2 sequence (Q9UHD2 1-729): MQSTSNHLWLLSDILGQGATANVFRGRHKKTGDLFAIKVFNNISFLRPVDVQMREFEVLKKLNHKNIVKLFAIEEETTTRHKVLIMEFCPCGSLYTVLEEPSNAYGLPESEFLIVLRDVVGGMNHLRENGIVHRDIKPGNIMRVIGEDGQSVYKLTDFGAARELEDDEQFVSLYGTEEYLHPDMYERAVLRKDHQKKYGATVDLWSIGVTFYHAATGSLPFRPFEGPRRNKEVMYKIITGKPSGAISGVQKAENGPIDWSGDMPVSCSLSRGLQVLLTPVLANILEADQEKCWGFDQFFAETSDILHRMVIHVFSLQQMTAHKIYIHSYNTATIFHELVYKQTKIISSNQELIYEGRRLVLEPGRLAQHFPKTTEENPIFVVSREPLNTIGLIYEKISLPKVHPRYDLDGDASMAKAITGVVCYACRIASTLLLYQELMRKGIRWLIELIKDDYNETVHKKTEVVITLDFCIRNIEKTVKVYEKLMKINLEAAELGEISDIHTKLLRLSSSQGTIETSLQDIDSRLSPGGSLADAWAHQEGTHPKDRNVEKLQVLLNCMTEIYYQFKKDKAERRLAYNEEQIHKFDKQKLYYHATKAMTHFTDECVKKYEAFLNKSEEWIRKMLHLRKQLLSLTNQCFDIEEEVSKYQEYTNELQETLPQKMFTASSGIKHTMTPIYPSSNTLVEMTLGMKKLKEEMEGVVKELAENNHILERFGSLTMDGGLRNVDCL

[3] = biological target: EphA7(h) (Homo sapiens, UniProt Q15375)
EphA7(h), sequence (Q15375 28-998): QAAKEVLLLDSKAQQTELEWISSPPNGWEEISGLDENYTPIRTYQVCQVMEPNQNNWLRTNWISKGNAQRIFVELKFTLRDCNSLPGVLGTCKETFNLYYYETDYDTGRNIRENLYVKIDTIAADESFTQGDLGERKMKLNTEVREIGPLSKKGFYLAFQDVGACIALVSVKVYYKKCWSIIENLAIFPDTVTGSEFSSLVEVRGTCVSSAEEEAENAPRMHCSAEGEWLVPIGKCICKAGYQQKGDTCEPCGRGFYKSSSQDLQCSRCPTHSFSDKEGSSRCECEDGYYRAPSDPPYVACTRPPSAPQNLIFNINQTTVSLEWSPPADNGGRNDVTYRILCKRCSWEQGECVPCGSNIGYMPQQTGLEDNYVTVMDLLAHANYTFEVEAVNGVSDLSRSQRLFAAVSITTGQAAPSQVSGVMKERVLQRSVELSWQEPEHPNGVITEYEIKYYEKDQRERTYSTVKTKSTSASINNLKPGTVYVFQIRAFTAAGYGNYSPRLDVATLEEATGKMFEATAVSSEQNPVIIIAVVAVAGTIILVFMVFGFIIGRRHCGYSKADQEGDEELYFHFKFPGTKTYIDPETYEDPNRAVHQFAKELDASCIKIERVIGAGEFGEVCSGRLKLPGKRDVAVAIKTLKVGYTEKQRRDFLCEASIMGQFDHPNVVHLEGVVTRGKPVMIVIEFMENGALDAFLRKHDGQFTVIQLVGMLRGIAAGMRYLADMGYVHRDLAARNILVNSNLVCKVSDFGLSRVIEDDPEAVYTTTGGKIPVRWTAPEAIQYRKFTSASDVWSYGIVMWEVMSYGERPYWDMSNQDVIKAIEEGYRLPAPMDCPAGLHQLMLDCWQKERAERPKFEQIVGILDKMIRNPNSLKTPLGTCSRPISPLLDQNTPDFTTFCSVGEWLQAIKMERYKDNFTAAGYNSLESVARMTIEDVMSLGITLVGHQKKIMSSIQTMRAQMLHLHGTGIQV

[4] = biological target: T3, TAO2(h) (Homo sapiens, UniProt Q9UL54)
T3 sequence (Q9UL54 1-1235): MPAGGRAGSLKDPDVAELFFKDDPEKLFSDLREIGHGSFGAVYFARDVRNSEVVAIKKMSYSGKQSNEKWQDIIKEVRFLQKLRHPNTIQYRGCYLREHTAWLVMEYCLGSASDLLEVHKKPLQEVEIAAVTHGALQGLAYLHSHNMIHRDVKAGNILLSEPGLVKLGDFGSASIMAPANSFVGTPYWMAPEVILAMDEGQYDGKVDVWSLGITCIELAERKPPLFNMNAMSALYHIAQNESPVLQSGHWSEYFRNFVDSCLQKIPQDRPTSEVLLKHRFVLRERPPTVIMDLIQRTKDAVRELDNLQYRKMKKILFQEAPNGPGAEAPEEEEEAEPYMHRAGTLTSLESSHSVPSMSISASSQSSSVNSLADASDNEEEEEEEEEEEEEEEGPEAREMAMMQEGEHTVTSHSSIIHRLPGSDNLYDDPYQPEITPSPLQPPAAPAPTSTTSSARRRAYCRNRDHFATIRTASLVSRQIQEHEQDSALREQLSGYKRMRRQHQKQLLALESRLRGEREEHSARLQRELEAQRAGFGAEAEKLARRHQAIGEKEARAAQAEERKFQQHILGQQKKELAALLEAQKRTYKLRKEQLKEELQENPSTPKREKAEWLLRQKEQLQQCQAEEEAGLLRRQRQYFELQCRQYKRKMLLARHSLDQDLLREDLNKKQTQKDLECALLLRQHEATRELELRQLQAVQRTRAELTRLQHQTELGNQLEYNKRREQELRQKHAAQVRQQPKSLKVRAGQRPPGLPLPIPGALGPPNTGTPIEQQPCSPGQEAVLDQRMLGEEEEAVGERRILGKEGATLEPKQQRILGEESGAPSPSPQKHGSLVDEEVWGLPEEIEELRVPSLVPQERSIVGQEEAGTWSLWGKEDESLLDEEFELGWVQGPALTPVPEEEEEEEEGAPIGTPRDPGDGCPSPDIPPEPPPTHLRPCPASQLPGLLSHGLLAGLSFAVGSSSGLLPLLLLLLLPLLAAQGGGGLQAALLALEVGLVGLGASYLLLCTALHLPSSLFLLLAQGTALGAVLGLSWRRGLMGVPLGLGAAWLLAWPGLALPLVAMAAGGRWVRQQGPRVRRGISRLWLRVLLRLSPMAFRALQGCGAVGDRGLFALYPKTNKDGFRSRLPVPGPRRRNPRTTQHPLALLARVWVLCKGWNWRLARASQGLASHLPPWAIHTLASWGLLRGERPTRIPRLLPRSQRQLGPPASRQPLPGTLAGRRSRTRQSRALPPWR

Row | Sequence | % activity [1] [%] | % activity [2] [%] | % activity [3] [%] | % activity [4] [%]
1 | FAKLAARLYRKALARQLGVAA [MMI-0300] | 52 | 37 | 159 | 70
2 | HRRIKAWLKKIKALARQLGVAA [MMI-0500] | 17 | 16 | 189 | 15
3 | KAFAKLAARLYRKALARQLGVAA [MMI-0400] | 50 | 39 | 222 | 74
4 | YARAAARQARAKALNRQLGVA [MMI-0200] | 90 | 98 | 220 | 93

From patent publication US20190134153A1, “IMMUNOMODULATORY EFFECT OF INHALED KINASE INHIBITOR PEPTIDES IN LUNG” (MOERAE MATRIX, INC., priority 2017, published 2019)
